Paper PMC3936753

Legend:
MBP-VP5 [1] = molecular target: T1, MBP-VP5 (Helicoverpa armigera cypovirus 5 …, UniProt Q3LTV8 1-380); assay: EMSA; 10 pmol protein, 0.1 pmol probe; 25 mM HEPES-KOH pH 7.5, 100 mM NaCl, 10 ul, 30 min at room temperature; 2% agarose gel
MBP-VP5 [2] = molecular target: T1, MBP-VP5; assay: competition; vs HEX-RNA1, 5-100 fold excess, 2 pmol protein; 25 mM HEPES-KOH pH 7.5, 100 mM NaCl, 10 ul, 30 min at room temperature; 2% agarose gel
MBP-VP5 [3] = molecular target: T1, MBP-VP5; assay: EMSA; 10 pmol protein, 0.1 pmol probe; Hill coefficient ~1.499 (0.05-0.16 uM) and ~4.972 (0.2-0.48 uM); 25 mM HEPES-KOH pH 7.5, 100 mM NaCl, 10 ul, 30 min at room temperature; 2% agarose gel

B1: DNA1 (ssDNA)
DNA: GTGTAGTAATCGTCCATTGTGTCT
- binding result (MBP-VP5 [1]): binds

B2: RNA1/RNA2 (dsRNA)
RNA 1: GUGUAGUAAUCGUCCAUUGUGUCU
RNA 2: AGACACAAUGGACGAUUACUACAC
- binding result (MBP-VP5 [1]): binds

B3: RNA10 (ssRNA)
RNA: GUGUAGUAAUCGUCCAUUGUGUCU
- binding result (MBP-VP5 [2]): binds

B4: RNA1 (ssRNA)
RNA: GUGUAGUAAUCGUCCAUUGUGUCU
- binding result (MBP-VP5 [3]): binds
